According to patent US20160096891A1 (AstraZeneca / MedImmune, published 2016):

T1: human B7-H5 expressed on cells (CHO transfectants) (UniProt Q9UM44 23-414)
T1 chain: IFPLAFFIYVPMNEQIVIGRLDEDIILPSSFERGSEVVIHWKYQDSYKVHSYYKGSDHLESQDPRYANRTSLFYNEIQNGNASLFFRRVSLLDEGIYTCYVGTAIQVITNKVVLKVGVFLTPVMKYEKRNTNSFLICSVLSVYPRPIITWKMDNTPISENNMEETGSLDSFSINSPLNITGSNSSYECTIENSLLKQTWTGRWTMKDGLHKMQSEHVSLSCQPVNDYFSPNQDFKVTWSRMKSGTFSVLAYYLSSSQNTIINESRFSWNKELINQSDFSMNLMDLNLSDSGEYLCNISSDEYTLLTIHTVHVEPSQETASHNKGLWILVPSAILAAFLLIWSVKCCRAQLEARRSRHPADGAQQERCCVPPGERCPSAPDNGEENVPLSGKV

T2: human B7-H5 expressed on cells (CHO transfectants) (human, UniProt Q9UM44 23-414)
T2 construct: also called B7-H7; HHLA2
T2 sequence: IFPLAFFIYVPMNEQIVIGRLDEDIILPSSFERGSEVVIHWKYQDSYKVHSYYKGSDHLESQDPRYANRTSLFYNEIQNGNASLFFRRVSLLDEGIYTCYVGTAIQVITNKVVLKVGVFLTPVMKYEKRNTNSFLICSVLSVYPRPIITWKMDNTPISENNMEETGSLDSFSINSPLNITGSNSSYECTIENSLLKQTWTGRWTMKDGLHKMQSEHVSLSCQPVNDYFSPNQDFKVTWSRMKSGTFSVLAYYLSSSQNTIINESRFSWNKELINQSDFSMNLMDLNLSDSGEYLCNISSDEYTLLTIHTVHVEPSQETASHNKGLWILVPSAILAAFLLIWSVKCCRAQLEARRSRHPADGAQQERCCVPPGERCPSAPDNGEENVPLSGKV

B1: anti-human B7-H5 antibody 2D3 (hybridoma clone 2D3) (antibody, V domains shown)
VH: QVQLQQSGAELVKPGASVKLSCKASGYTFTSHDINWVRQRPELGLEWIGWIFPGDGSTKFNEKFKGKATLTTDKSSSTAYIQLSRLTSEDSAVYFCARNSFYSMDYWGQGTSVTVSS
VL: DIVMSQSPSSLAVSAGEKVTMSCKSSQSLLNSRTRKNQLAWYQQKPGQSPKLLIYWAFIRESGVPDRFTGSGSGTDFTLTISSVQAEDLAVYYCKQSYNLRTFGGGTKLEIK
notes: constant regions are not; also called Anti-Human B7-H5 Clone 2D3; 2D3 mAb
B2: anti-human B7-H5 antibody 18C3 (hybridoma clone 18C3) (antibody, V domains shown)
VH: QVQLQQSGAELVKPGASVKLSCKASGYTFTSHDINWVRQRPEQGLEWIGWIFPGDGSTKFNEKFKGKATLTTDKSSSTAYIQLSRLTSEDSAVYFCARNSFYSMDYWGQGTSVTVSS
VL: DIVMSQSPSSLAVSAGEKVTMSCKSSQSLLNSRTRKNQLAWYQQKPGQSPKLLIYWASTRESGVPDRFTGSGSGTDFTLTISSVQAEDLAVYYCKQSYNLRTFGGGTKLEIK
notes: constant regions are not; also called Anti-Human B7-H5 Clone 18C3
B3: recombinant anti-human B7-H5 chimeric antibody 18C3, human IgG4P isotype (antibody, V domains shown)
VH: QVQLQQSGAELVKPGASVKLSCKASGYTFTSHDINWVRQRPEQGLEWIGWIFPGDGSTKFNEKFKGKATLTTDKSSSTAYIQLSRLTSEDSAVYFCARNSFYSMDYWGQGTSVTVSS
VL: DIVMSQSPSSLAVSAGEKVTMSCKSSQSLLNSRTRKNQLAWYQQKPGQSPKLLIYWASTRESGVPDRFTGSGSGTDFTLTISSVQAEDLAVYYCKQSYNLRTFGGGTKLEIK
notes: also called recombinant chimeric 18C3; human IgG4P derivative of 18C3
B4: recombinant anti-human B7-H5 chimeric antibody 2D3, human IgG4P isotype (antibody, V domains shown)
VH: QVQLQQSGAELVKPGASVKLSCKASGYTFTSHDINWVRQRPELGLEWIGWIFPGDGSTKFNEKFKGKATLTTDKSSSTAYIQLSRLTSEDSAVYFCARNSFYSMDYWGQGTSVTVSS
VL: DIVMSQSPSSLAVSAGEKVTMSCKSSQSLLNSRTRKNQLAWYQQKPGQSPKLLIYWAFIRESGVPDRFTGSGSGTDFTLTISSVQAEDLAVYYCKQSYNLRTFGGGTKLEIK
notes: also called recombinant chimeric 2D3; human IgG4P derivative of 2D3

Columns and labels:
[1] = molecular target: T1, human B7-H5 expressed on cells (CHO …); assay: FACS binding to CHO cells
[2] = molecular target: T2, human B7-H5 expressed on cells (CHO …); assay: flow cytometry on CHO transfectants expressing human B7-H5
[3] = molecular target: T2, human B7-H5 expressed on cells (CHO …); assay: flow cytometry on CHO cells expressing human B7-H5 (figure legend)
Method: Human B7-H5 FL CHO transfectants were pre-incubated with control supernatant (Panel A) or recombinant chimeric 2D3 (Panel B) and 18C3 supernatants (Panel C), and subsequently stained with biotinylated CD28HhIg fusion protein.
The human B7-H5-binding antibodies of the present invention (antibodies 2D3 and 18C3) were recombinantly converted to a human IgG4P isotype from their native hamster isotype. CHO transfectants that express human B7-H5 were then incubated in the presence of the recombinant antibodies. […] FIG. 15 compares the affinities of antibodies 2D3 and 18C3 for binding to human B7-H5 as expressed on the surface of CHO cells.

Binder	Kd [1] [nM]	binding result [2]	binding result [3]
B1	~2.5	binds	
B2	~3.8	binds	
B3			binds
B4			binds
